The values that follow are results of earlier work, collected in PMC3433420.

Where two headings read alike, the source gives them in different places.

Targets include PLCG1-NC (Homo sapiens) (UniProt P19174); PLCG1-C (Homo sapiens) (UniProt P19174); SYK-C (Homo sapiens) (UniProt P43405); PIK3R1-N (Homo sapiens) (UniProt P27986); BLK (Homo sapiens) (UniProt P51451); ITK (Homo sapiens) (UniProt Q08881); CRK (Homo sapiens) (UniProt P46108); SUPT6H (Homo sapiens) (UniProt Q7KZ85); SH2B3 (Homo sapiens) (UniProt Q9UQQ2); PLCG2-NC (Homo sapiens) (UniProt P16885); LYN (Homo sapiens) (UniProt P07948); FGR (Homo sapiens) (UniProt P09769); VAV3 (Homo sapiens) (UniProt Q9UKW4); GRB14 (Homo sapiens) (UniProt Q14449); SH2B (Homo sapiens) (UniProt Q9NRF2); PLCG2-N (Homo sapiens) (UniProt P16885); PIK3R1-NC (Homo sapiens) (UniProt P27986); GRB10 (Homo sapiens) (UniProt Q13322); TNS3 (Homo sapiens) (UniProt Q68CZ2); SRC (Homo sapiens) (UniProt P12931); PIK3R2-NC (Homo sapiens) (UniProt O00459); BCAR3 (Homo sapiens) (UniProt O75815); YES1 (Homo sapiens) (UniProt P07947); SHC2-PTB (Homo sapiens) (UniProt P98077); SHB (Homo sapiens) (UniProt Q15464); SH2D3C (Homo sapiens) (UniProt Q8N5H7); PIK3R2-N (Homo sapiens) (UniProt O00459); TENC1 (Homo sapiens) (UniProt Q63HR2); HSH2D (Homo sapiens) (UniProt Q96JZ2); MATK (Homo sapiens) (UniProt P42679).

Common to all, as to conditions: cited from earlier work
For series [1], the target named is SYK-NC (Homo sapiens) (UniProt P43405).
For series [2], the target named is GRB7 (Homo sapiens) (UniProt Q14451).
Series [3] deals with SLA (Homo sapiens) (UniProt Q13239).
Series [4] addresses ABL2 (Homo sapiens) (UniProt P42684).
In series [5] the target is PIK3R3-NC (Homo sapiens) (UniProt Q92569).
Series [6] has as its target RASA1-N (Homo sapiens) (UniProt P20936).
In series [7] the target is SHC1-PTB (Homo sapiens) (UniProt P29353).
Series [8] deals with VAV2 (Homo sapiens) (UniProt P52735).
Series [9] has the same target. The source holds these as a separate data set.
Series [10] has as its target SYK-NC (Homo sapiens) (UniProt P43405). The source holds these as a separate data set.
Series [11] concerns the target GRB7 (Homo sapiens) (UniProt Q14451). This is another data set of the same source.
For series [12], the target named is SLA (Homo sapiens) (UniProt Q13239). The source holds these as a separate data set.
The target of series [13] is ABL2 (Homo sapiens) (UniProt P42684). This is another data set of the same source.
The target in series [14] is TNS4 (Homo sapiens) (UniProt Q8IZW8).
The target of series [15] is PIK3R3-NC (Homo sapiens) (UniProt Q92569). The source holds these as a separate data set.
The target in series [16] is RASA1-N (Homo sapiens) (UniProt P20936). This is another data set of the same source.
Series [17] has as its target NCK2 (Homo sapiens) (UniProt O43639).
The target of series [18] is SHC1-PTB (Homo sapiens) (UniProt P29353). This is another data set of the same source.
Series [19] has as its target VAV2 (Homo sapiens) (UniProt P52735). The source holds these as a separate data set.
Series [20] deals with RASA1-NC (Homo sapiens) (UniProt P20936).
The target of series [21] is SYK-NC (Homo sapiens) (UniProt P43405). The source holds these as a separate data set.
Series [22] deals with GRB7 (Homo sapiens) (UniProt Q14451). This is another data set of the same source.
The target of series [23] is ABL2 (Homo sapiens) (UniProt P42684). The source holds these as a separate data set.
Series [24] addresses TNS4 (Homo sapiens) (UniProt Q8IZW8). The source holds these as a separate data set.
For series [25], the target named is NCK2 (Homo sapiens) (UniProt O43639). The source holds these as a separate data set.
Series [26] deals with SHC1-PTB (Homo sapiens) (UniProt P29353). The source holds these as a separate data set.
Series [27] addresses RASA1-NC (Homo sapiens) (UniProt P20936). This is another data set of the same source.

Chain of VAV2 (Homo sapiens) (P52735 668-772): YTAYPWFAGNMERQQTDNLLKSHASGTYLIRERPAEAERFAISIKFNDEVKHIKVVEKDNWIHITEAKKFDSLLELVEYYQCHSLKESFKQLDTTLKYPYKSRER
Chain of GRB7 (Homo sapiens) (Q14451 426-532): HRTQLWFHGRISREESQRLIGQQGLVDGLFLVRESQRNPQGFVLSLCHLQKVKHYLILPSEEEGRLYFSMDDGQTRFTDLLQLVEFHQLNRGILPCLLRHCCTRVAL
Chain of ABL2 (Homo sapiens) (P42684 168-268): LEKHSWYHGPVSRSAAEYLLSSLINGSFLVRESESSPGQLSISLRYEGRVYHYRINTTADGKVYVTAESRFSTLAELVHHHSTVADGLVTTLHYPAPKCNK
Chain of SHC1-PTB (Homo sapiens) (P29353 483-583): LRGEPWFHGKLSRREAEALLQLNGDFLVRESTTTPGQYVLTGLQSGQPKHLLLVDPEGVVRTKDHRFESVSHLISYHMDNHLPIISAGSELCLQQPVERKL
Chain of RASA1-N (Homo sapiens) (P20936 176-446): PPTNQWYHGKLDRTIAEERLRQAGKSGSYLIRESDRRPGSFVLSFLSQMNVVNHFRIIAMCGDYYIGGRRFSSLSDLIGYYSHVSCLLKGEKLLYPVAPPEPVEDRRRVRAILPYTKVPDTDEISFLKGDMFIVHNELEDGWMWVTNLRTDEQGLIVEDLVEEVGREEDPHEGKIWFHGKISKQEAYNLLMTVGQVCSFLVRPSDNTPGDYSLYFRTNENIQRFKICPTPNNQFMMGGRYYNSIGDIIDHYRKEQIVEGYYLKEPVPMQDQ
Chain of RASA1-NC (Homo sapiens) (P20936 176-446): as above
Chain of TNS4 (Homo sapiens) (Q8IZW8 444-561): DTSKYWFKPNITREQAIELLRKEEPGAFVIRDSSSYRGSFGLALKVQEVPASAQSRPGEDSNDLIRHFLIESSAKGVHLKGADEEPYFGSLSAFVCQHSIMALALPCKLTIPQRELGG
Chain of SLA (Homo sapiens) (Q13239 79-180): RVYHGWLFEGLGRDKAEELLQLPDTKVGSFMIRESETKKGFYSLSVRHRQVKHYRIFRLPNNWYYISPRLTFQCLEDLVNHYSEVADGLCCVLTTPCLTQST
Chain of NCK2 (Homo sapiens) (O43639 280-380): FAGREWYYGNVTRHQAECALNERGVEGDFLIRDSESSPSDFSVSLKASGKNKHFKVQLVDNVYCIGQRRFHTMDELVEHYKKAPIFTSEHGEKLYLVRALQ
Chain of SUPT6H (Homo sapiens) (Q7KZ85 1320-1436): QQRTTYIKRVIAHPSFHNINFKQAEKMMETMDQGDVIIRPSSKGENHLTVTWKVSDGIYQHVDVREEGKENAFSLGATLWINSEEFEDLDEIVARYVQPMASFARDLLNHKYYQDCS
Chain of VAV3 (Homo sapiens) (Q9UKW4 667-771): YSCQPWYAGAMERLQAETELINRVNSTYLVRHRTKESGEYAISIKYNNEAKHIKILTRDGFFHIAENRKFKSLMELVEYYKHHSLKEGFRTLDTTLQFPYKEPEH
Chain of PLCG1-C (Homo sapiens) (P19174 545-761): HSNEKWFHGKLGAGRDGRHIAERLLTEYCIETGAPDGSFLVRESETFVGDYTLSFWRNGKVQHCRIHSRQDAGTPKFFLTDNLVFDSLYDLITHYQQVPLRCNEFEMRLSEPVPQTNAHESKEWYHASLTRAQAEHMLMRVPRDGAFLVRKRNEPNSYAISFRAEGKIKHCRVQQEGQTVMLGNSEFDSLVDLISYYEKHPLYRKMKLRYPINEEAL
Chain of PLCG1-NC (Homo sapiens) (P19174 545-761): as above
Chain of TNS3 (Homo sapiens) (Q68CZ2 1167-1287): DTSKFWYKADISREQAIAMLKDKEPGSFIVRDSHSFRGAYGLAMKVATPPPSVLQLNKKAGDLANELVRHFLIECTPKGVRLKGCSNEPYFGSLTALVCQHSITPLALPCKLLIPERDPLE
Chain of SHB (Homo sapiens) (Q15464 405-509): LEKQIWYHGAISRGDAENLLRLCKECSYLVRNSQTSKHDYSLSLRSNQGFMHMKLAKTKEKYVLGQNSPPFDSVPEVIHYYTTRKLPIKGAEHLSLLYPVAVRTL
Chain of CRK (Homo sapiens) (P46108 8-123): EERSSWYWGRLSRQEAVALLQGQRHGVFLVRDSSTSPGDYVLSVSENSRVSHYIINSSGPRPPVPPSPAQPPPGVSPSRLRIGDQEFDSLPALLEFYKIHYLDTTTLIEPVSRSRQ
Chain of MATK (Homo sapiens) (P42679 117-216): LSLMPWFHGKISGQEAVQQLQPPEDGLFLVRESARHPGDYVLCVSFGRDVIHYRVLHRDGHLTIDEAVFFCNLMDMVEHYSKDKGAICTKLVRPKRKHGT
Chain of BCAR3 (Homo sapiens) (O75815 149-258): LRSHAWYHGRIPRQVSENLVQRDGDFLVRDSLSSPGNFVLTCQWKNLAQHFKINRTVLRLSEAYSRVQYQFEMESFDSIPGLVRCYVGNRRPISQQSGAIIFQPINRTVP
Chain of SHC2-PTB (Homo sapiens) (P98077 482-582): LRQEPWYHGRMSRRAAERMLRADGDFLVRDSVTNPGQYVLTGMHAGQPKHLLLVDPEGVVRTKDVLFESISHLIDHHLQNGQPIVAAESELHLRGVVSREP
Chain of GRB14 (Homo sapiens) (Q14449 434-540): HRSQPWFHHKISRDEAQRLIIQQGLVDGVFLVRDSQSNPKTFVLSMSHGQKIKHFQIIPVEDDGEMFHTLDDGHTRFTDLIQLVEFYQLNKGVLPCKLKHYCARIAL
Chain of LYN (Homo sapiens) (P07948 124-231): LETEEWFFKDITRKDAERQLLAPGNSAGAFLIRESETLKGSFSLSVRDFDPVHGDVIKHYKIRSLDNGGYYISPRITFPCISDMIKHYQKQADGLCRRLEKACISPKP
Chain of TENC1 (Homo sapiens) (Q63HR2 1135-1252): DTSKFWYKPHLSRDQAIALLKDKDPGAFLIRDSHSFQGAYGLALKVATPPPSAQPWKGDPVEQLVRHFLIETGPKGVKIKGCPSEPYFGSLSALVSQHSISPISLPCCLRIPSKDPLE
Chain of SH2D3C (Homo sapiens) (Q8N5H7 215-324): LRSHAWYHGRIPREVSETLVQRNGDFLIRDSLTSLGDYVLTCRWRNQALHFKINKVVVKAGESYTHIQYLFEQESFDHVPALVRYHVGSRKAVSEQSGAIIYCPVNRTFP
Chain of PLCG2-NC (Homo sapiens) (P16885 527-740): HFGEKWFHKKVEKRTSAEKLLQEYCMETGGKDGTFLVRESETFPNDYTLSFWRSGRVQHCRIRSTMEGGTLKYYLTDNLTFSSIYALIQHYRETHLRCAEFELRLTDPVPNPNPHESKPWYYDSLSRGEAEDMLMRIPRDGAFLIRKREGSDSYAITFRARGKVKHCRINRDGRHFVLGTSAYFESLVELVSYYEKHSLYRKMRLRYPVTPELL
Chain of PLCG2-N (Homo sapiens) (P16885 527-740): as above
Chain of YES1 (Homo sapiens) (P07947 153-260): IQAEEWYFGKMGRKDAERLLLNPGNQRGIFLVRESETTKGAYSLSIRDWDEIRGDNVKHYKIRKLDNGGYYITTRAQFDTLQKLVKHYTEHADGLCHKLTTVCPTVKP
Chain of PIK3R2-N (Homo sapiens) (O00459 325-721): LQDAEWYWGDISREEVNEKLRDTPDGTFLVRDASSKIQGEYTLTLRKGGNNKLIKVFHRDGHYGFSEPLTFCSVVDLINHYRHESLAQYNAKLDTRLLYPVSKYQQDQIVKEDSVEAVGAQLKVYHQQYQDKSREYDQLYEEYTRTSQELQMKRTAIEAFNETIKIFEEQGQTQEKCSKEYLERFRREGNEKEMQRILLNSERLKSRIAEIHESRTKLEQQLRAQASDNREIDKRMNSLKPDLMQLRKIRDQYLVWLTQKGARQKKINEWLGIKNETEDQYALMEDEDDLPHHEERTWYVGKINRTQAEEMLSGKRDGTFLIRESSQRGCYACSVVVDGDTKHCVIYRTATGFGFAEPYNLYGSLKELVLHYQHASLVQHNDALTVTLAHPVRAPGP

For …pYLQEYSTKd, the apparent Kd (screen) with SYK-NC (Homo sapiens) [1] was 2000 nM; with GRB7 (Homo sapiens) [2], 2000 nM; in the series with SLA (Homo sapiens) [3], 2000 nM; with ABL2 (Homo sapiens) [4], 883 nM; in the series with PLCG1-NC (Homo sapiens), 2000 nM; with PIK3R3-NC (Homo sapiens) [5], 2000 nM. The apparent Kd (screen) in the series with RASA1-N (Homo sapiens) [6] was 2000 nM; in the series with SHC1-PTB (Homo sapiens) [7] it was 2000 nM; with VAV2 (Homo sapiens) [8], 769 nM; with VAV2 (Homo sapiens) [9], 2000 nM; in the series with PLCG1-C (Homo sapiens), 2000 nM.
Turning to …pYQQDFFPKd, the apparent Kd (screen) with SYK-NC (Homo sapiens) [10] was 1280 nM; with SYK-C (Homo sapiens) it was 869 nM; in the series with GRB7 (Homo sapiens) [11], 2000 nM; in the series with PIK3R1-N (Homo sapiens) it was 404 nM; with SLA (Homo sapiens) [12], 2000 nM; with BLK (Homo sapiens) it was 751 nM. Moreover, the apparent Kd (screen) is 1410 nM in the series with ITK (Homo sapiens); 490 nM in the series with ABL2 (Homo sapiens) [13]; 408 nM with CRK (Homo sapiens); 334 nM with TNS4 (Homo sapiens) [14]; 1030 nM in the series with SUPT6H (Homo sapiens); 1600 nM with SH2B3 (Homo sapiens). The apparent Kd (screen) with PLCG2-NC (Homo sapiens) is 674 nM; in the series with PIK3R3-NC (Homo sapiens) [15], 850 nM; with LYN (Homo sapiens), 1590 nM; with FGR (Homo sapiens), 546 nM; in the series with VAV3 (Homo sapiens), 2000 nM; in the series with RASA1-N (Homo sapiens) [16], 1140 nM. Further, the apparent Kd (screen) with GRB14 (Homo sapiens) is 1250 nM; with SH2B (Homo sapiens) it was 1820 nM; in the series with PLCG2-N (Homo sapiens), 841 nM; in the series with PIK3R1-NC (Homo sapiens) it was 547 nM; in the series with NCK2 (Homo sapiens) [17] it was 380 nM; with GRB10 (Homo sapiens), 1290 nM. Moreover, the apparent Kd (screen) is 736 nM with TNS3 (Homo sapiens); 466 nM with SRC (Homo sapiens); 322 nM in the series with PIK3R2-NC (Homo sapiens); 300 nM in the series with BCAR3 (Homo sapiens); 40 nM with SHC1-PTB (Homo sapiens) [18]; 216 nM in the series with VAV2 (Homo sapiens) [19]. Also, the apparent Kd (screen) in the series with YES1 (Homo sapiens) was 98 nM; in the series with SHC2-PTB (Homo sapiens) it was 1310 nM; in the series with SHB (Homo sapiens), 1790 nM; in the series with SH2D3C (Homo sapiens), 1910 nM; with RASA1-NC (Homo sapiens) [20], 1170 nM; in the series with PIK3R2-N (Homo sapiens), 390 nM.
For …pYWHSRLFP, the apparent Kd (screen) with SYK-NC (Homo sapiens) [21] is 1980 nM; with GRB7 (Homo sapiens) [22], 1690 nM; with ABL2 (Homo sapiens) [23] it was 604 nM; with TNS4 (Homo sapiens) [24] it was 850 nM; with TENC1 (Homo sapiens) it was 1250 nM; with NCK2 (Homo sapiens) [25] it was 1900 nM. The apparent Kd (screen) was 1700 nM with HSH2D (Homo sapiens), 217 nM with SHC1-PTB (Homo sapiens) [26], 1920 nM in the series with RASA1-NC (Homo sapiens) [27] and 1870 nM in the series with MATK (Homo sapiens).
